The source of these data is US20060057701A1 (RINAT NEUROSCIENCE, published 2006).

The target of experiment [1] is T1, biotinylated Aβ 25-39 peptide with C-terminal glycine (human, also: biotinylated, position not given here).
T1 peptide: GSNKGAIIGLMVGGVG
As to the kind of experiment: ELISA: biotinylated peptide on streptavidin plate, goat anti-human kappa HRP, absorbance at 450 nm.

For experiment [2], the target named is T2, biotinylated Aβ 20-34 peptide with C-terminal glycine (human, also: biotinylated, position not given here).
T2 peptide: FAEDVGSNKGAIIGLG
The experiment is described as above.

The target of experiment [3] is T3, biotinylated Aβ 22-36 peptide with C-terminal glycine (human, also: biotinylated, position not given here).
T3 peptide: EDVGSNKGAIIGLMVG
Described as above.

In experiment [4] the target is T4, biotinylated Aβ 21-35 peptide with C-terminal glycine (human, also: biotinylated, position not given here).
T4 peptide: AEDVGSNKGAIIGLMG
The description is as above.

The target in experiment [5] is T5, biotinylated Aβ 23-37 peptide with C-terminal glycine (human, also: biotinylated, position not given here).
T5 peptide: DVGSNKGAIIGLMVGG
The experiment is described as above.

The target of experiment [6] is T6, biotinylated Aβ 24-38 peptide with C-terminal glycine (human, also: biotinylated, position not given here).
T6 peptide: VGSNKGAIIGLMVGGG
The description is as above.

The target in another experiment is T7, Aβ1-43 peptide (human).
T7 construct: also called 1-43 (WT)
The experiment is described as follows: SPR competition: soluble peptide against immobilized Aβ1-40, Fab at 50 nM. The method, then:
(§1) To determine the epitope on Aβ polypeptide that is recognized by antibody 9TL, Surface Plasmon Resonance (SPR, Biacore 3000) binding analysis was used. Aβ₁₋₄₀ polypeptide coupled to biotin (Global Peptide Services, CO) was immobilized on a streptavidin-coated chip (SA chip). The binding of Aβ antibodies Fab fragments (at 50 nM) to the immobilized Aβ₁₋₄₀ in the absence or presence of different soluble fragments of the Aβ peptide (at 10 μM, from American Peptide Company Inc., CA). Amino acid sequences of Aβ₁₋₄₀, Aβ₁₋₄₂, and Aβ₁₋₄₃ are shown in below in Table 4. The Aβ peptides which displaced binding of antibody 9TL Fab fragment to Aβ₁₋₄₀ were Aβ₂₈₋₄₀, Aβ₁₋₄₀, Aβ₃₃₋₄₀, and Aβ₁₇₋₄₀, respectively (FIG. 2). Thus, antibody 9TL binds to a C-terminal peptide (33-40) of Aβ₁₋₄₀.

A further experiment has as its target T8, Aβ28-42 peptide (human).
T8 peptide: KGAIIGLMVGGVVIA
The description is as above. How it is done:
as §1

The target in another experiment is T9, murine FcγRIII (murine, UniProt P08508 31-215, limits assumed).
T9 construct: Bought; also called mFcγRIII
T9 sequence (looked up): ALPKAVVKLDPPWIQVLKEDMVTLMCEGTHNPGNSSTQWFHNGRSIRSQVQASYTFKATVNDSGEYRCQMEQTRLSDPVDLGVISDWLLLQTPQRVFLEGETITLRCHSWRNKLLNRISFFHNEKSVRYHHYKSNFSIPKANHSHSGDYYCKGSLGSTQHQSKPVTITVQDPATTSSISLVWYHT
As to the kind of experiment: SPR, receptor on CM5 chip, antibody flowed. How it is done:
(§2) Binding affinity of the antibody Fc regions to Fcγ receptors or complement were measured using BIAcore as described above. Briefly, purified human or murine Fcγ receptors (from R&D Systems) and human C1q (from Quidel) were immobilized on BIAcore CM5 chip by amine chemistry. Serial dilutions of monoclonal antibodies (ranging from 2 nM to the maximum concentration as indicated in Tables 16 and 17) were injected. HBS-EP (0.01M HEPES, pH 7.4, 0.15 M NaCl, 3 mM EDTA, 0.005% Surfactant P20) as running and sample buffer. Binding data were analyzed using 1:1 langmuir interaction model for high affinity interactions, or steady state affinity model for low affinity interactions.

The next experiment has as its target T10, murine FcγRI (murine, UniProt P26151 25-297, limits assumed).
T10 construct: Bought; also called mFcγRI
T10 sequence (looked up): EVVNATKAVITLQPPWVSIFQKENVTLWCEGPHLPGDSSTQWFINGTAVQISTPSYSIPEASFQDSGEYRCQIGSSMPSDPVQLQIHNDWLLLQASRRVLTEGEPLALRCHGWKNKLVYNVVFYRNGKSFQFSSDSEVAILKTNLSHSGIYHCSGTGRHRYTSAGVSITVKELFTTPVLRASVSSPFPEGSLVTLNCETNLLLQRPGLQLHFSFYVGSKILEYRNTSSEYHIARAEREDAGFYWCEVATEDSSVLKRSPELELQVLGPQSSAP
As to the kind of experiment: SPR, receptor on CM5 chip, antibody flowed. The method, then: as §2

For another experiment, the target named is T11, human FcγRI (human, UniProt P12314 16-288, limits assumed).
T11 construct: Bought
As to the kind of experiment: SPR, receptor on CM5 chip, antibody flowed. How it is done: as §2

A further experiment has as its target T12, murine FcγRIIb (murine, UniProt P08101 40-217, limits assumed).
T12 construct: Bought; also called mFcγRIIb
T12 sequence (looked up): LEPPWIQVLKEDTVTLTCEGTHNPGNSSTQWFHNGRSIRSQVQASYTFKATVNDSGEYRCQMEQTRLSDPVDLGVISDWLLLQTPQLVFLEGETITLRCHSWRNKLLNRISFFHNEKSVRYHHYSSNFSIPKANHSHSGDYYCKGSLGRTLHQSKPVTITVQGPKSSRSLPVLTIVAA
As to the kind of experiment: SPR, receptor on CM5 chip, antibody flowed. The method, then:
as §2

The target in another experiment is T13, human FcγRIIb/c (human, UniProt P31994 46-217, limits assumed).
T13 construct: Bought
T13 sequence (looked up): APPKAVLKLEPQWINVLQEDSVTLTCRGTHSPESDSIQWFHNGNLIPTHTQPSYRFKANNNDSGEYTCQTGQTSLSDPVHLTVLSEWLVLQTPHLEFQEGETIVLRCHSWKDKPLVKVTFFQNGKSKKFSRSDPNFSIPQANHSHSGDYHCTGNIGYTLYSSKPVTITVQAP
As to the kind of experiment: SPR, receptor on CM5 chip, antibody flowed. How it is done:
as §2

In a further experiment the target is T14, human C1q (human, UniProt P02745 23-245; P02746 28-253; P02747 29-245).
T14 construct: also called hC1q; human complement
The experiment is described as follows: SPR, C1q on CM5 chip, antibody flowed. The method, then:
as §2

Ends that are not written are not given here. Where only a bound is given, the exact number is not on record here.

T11 sequence (P12314 16-288 limits assumed): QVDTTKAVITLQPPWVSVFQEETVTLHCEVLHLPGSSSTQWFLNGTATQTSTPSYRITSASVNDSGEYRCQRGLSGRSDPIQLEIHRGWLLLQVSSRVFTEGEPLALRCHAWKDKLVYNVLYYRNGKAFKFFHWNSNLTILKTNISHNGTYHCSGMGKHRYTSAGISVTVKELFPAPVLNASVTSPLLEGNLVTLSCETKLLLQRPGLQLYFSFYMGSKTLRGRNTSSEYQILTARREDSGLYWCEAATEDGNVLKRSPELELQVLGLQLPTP
T7 sequence (peptide, as listed by the source): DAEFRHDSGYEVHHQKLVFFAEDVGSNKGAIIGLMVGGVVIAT
T14 sequence (P02745 23-245 limits assumed, chain 1 of 3): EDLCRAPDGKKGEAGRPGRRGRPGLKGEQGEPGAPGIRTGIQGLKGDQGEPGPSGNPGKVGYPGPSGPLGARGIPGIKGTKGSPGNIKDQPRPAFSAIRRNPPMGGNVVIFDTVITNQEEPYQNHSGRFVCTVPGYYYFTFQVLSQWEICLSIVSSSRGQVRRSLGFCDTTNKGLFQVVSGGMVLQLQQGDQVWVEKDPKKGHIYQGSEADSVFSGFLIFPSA
T14 sequence (P02746 28-253 limits assumed, chain 2 of 3): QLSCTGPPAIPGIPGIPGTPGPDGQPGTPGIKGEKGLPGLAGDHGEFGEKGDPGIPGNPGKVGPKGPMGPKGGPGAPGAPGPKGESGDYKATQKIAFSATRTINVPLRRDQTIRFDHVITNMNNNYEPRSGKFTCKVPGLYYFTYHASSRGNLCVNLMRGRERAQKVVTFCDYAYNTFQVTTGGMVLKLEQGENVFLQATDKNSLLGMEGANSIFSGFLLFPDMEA
T14 sequence (P02747 29-245 limits assumed, chain 3 of 3): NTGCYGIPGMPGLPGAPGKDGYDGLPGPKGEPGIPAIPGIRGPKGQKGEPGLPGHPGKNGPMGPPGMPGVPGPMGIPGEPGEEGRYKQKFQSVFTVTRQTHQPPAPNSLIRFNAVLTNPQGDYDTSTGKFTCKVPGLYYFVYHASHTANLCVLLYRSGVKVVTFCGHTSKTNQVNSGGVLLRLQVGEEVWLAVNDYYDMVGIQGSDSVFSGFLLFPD

B1: antibody 6G (antibody, human IgG2, kappa, V domains shown)
VH: QVQLVQSGAEVKKPGASVKVSCKASGYTFTTYAIHWVRQAPGQGLEWMGFTSPYSGVSNYNQKFKGRVTMTRDTSTSTVYMELSSLRSEDTAVYYCARFDNYDRGYVRDYWGQGTLVTVSS
VL: DIVMTQSPDSLAVSLGERATINCRASESVDNDRISFLNWYQQKPGQPPKLLIYAATKQGTGVPDRFSGSGSGTDFTLTISSLQAEDVAVYYCQQSKEFPWSFGGGTKVEIKR
notes: Full antibody with modified human IgG2a (A330P331 to S330S331) and human kappa
As to B1, the “absorbance at 450 nm” value in experiment [1] is 1.5; in [2], over 3; in experiment [3] it was over 3; in [4] it was over 3; in [5] it was 2.3; in experiment [6], 2.1.

B2: antibody 9TL Fab fragment (Fab, V domains shown)
VH: QVQLVQSGAEVKKPGASVKVSCKASGYYTEAYYIHWVRQAPGQGLEWMGRIDPATGNTKYAPRLQDRVTMTRDTSTSTVYMELSSLRSEDTAVYYCASLYSLPVYWGQGTTVTVSS
VL: DVVMTQSPLSLPVTLGQPASISCKSSQSLLYSDAKTYLNWFQQRPGQSPRRLIYQISRLDPGVPDRFSGSGSGTDFTLKISRVEAEDVGVYYCLQGTHYPVLFGQGTRLEIKR
notes: Fab expressed in E. coli
Regarding B2, the binding result with Aβ1-43 peptide and with Aβ28-42 peptide was “no binding (tested: 10 µM peptide)” in each case.

B3: antibody 9TL (antibody, human IgG2, kappa)
heavy: QVQLVQSGAEVKKPGASVKVSCKASGYYTEAYYIHWVRQAPGQGLEWMGRIDPATGNTKYAPRLQDRVTMTRDTSTSTVYMELSSLRSEDTAVYYCASLYSLPVYWGQGTTVTVSSASTKGPSVFPLAPCSRSTSESTAALGCLVKDYFPEPVTVSWNSGALTSGVHTFPAVLQSSGLYSLSSVVTVPSSNFGTQTYTCNVDHKPSNTKVDKTVERKCCVECPPCPAPPVAGPSVFLFPPKPKDTLMISRTPEVTCVVVDVSHEDPEVQFNWYVDGVEVHNAKTKPREEQFNSTFRVVSVLTVVHQDWLNGKEYKCKVSNKGLPSSIEKTISKTKGQPREPQVYTLPPSREEMTKNQVSLTCLVKGFYPSDIAVEWESNGQPENNYKTTPPMLDSDGSFFLYSKLTVDKSRWQQGNVFSCSVMHEALHNHYTQKSLSLSPGK
light: DVVMTQSPLSLPVTLGQPASISCKSSQSLLYSDAKTYLNWFQQRPGQSPRRLIYQISRLDPGVPDRFSGSGSGTDFTLKISRVEAEDVGVYYCLQGTHYPVLFGQGTRLEIKRTVAAPSVFIFPPSDEQLKSGTASVVCLLNNFYPREAKVQWKVDNALQSGNSQESVTEQDSKDSTYSLSSTLTLSKADYEKHKVYACEVTHQGLSSPVTKSFNRGEC
notes: Full antibody; human IgG2a constant region with A330P331 to S330S331, human kappa; transient expression in HEK 293 cells; also called 9TL mAb; 9TL(hIgG2Δa); copies: 2 + 2
Take B3: the binding result with murine FcγRIII was “no binding (tested: 30,000 nM)”; with murine FcγRI, “no binding (tested: 30,000 nM)”; in the experiment with human FcγRI, “no binding (tested: 30 µM)”; with murine FcγRIIb, “no binding (tested: 30,000 nM)”; with human C1q it was “no binding (tested: 30,000 nM)”. For the same molecule, the Kd with human FcγRIIb/c is 61 µM.
